# Test results published in the Human Domainome abundance scans (Beltran et al. 2025).
# ± gives the uncertainty stated by the source.
# B1: Cell division cycle and apoptosis regulator protein 1, residues 625 to 674; numbered along this chain, Q8IX12 (parent)
# chain: ISTPTHWSKLDPKTMKVNDLRKELESRALSSKGLKSQLIARLTKQLKVEE
# B2: Tripartite motif-containing protein 6, residues 93 to 134; numbered along this chain, Q9C030 (parent)
# chain: KAVLCADHGEKLQLFCQEDGKVICWLCERSQEHRGHHTFLVE
# Variants of: B1
# Experiment: abundance fitness (aPCA) (normalised: wild type 0, dead -1); higher = more abundant; growth selection in yeast, the domain comes from the species named
# Details: Homo sapiens
row,Variant,abundance fitness
1,ISTPTHWSKLDPKTMKVNDLRKELESRALSSKGLKSQLIARLTKQLKVRE [E49R],-0.935 ± 0.046
2,ISTPTHWSKLDPKTMKVNDLRKELESRALSSKGLKSQLIARLTKQLKVVE [E49V],-0.906 ± 0.067
3,ISTPTHWSKLDPKTMKVNDLRKELESRALSSKGLKSQLIARLTKQLKVWE [E49W],-1 ± 0.11
4,ISTPTHWSKLDPKTMKVNDLRKELESRALSSKGLKSQLIARLTKQLKVYE [E49Y],-1.21 ± 0.32
5,ISTPTHWSKLDPKTMKVNDLRKELESRALSSKGLKSQLIARLTKQLKVEQ [E50Q],-0.064 ± 0.083
6,ISTPTHWSKLDPKTMKVNDLRKELESRALSSKGLKSQLIARLTKQLKVET [E50T],-0.535 ± 0.26
7,ISTPTHWSKLDPKTMKVNDLRKELESRALSSKGLKSQLIARLTKQLKVEW [E50W],-0.173 ± 0.12
8,ISTPTHWSKLDPKTMKVNDLRKELESRALSSKGLKSQLIARLTKQLKVEA [E50A],-0.21 ± 0.079
9,ISTPTHWSKLDPKTMKVNDLRKELESRALSSKGLKSQLIARLTKQLKVED [E50D],-0.495 ± 0.11
10,ISTPTHWSKLDPKTMKVNDLRKELESRALSSKGLKSQLIARLTKQLKVEN [E50N],-0.332 ± 0.095
11,ISTPTHWSKLDPKTMKVNDLRKELESRALSSKGLKSQLIARLTKQLKVEG [E50G],-0.228 ± 0.037
12,ISTPTHWSKLDPKTMKVNDLRKELESRALSSKGLKSQLIARLTKQLKVEM [E50M],-0.641 ± 0.16
13,ISTPTHWSKLDPKTMKVNDLRKELESRALSSKGLKSQLIARLTKQLKVEI [E50I],0.068 ± 0.16
14,ISTPTHWSKLDPKTMKVNDLRKELESRALSSKGLKSQLIARLTKQLKVEH [E50H],0.003 ± 0.16
15,ISTPTHWSKLDPKTMKVNDLRKELESRALSSKGLKSQLIARLTKQLKVER [E50R],-0.27 ± 0.068
16,ISTPTHWSKLDPKTMKVNDLRKELESRALSSKGLKSQLIARLTKQLKVEV [E50V],-0.231 ± 0.035

# Variants of: B2
# Experiment: as above
# Details: Homo sapiens
row,Variant,abundance fitness
1,KWVLCADHGEKLQLFCQEDGKVICWLCERSQEHRGHHTFLVE [A2W],-0.04 ± 0.052
2,KCVLCADHGEKLQLFCQEDGKVICWLCERSQEHRGHHTFLVE [A2C],-0.167 ± 0.089
3,KYVLCADHGEKLQLFCQEDGKVICWLCERSQEHRGHHTFLVE [A2Y],-0.153 ± 0.11
4,KEVLCADHGEKLQLFCQEDGKVICWLCERSQEHRGHHTFLVE [A2E],0.195 ± 0.055
5,KTVLCADHGEKLQLFCQEDGKVICWLCERSQEHRGHHTFLVE [A2T],0.136 ± 0.046
6,KMVLCADHGEKLQLFCQEDGKVICWLCERSQEHRGHHTFLVE [A2M],0.264 ± 0.061
7,KIVLCADHGEKLQLFCQEDGKVICWLCERSQEHRGHHTFLVE [A2I],-0.018 ± 0.12
8,KSVLCADHGEKLQLFCQEDGKVICWLCERSQEHRGHHTFLVE [A2S],0.045 ± 0.063
9,KVVLCADHGEKLQLFCQEDGKVICWLCERSQEHRGHHTFLVE [A2V],0.065 ± 0.051
10,KKVLCADHGEKLQLFCQEDGKVICWLCERSQEHRGHHTFLVE [A2K],0.133 ± 0.068
11,KDVLCADHGEKLQLFCQEDGKVICWLCERSQEHRGHHTFLVE [A2D],-0.031 ± 0.14
12,KLVLCADHGEKLQLFCQEDGKVICWLCERSQEHRGHHTFLVE [A2L],-0.013 ± 0.06
13,KNVLCADHGEKLQLFCQEDGKVICWLCERSQEHRGHHTFLVE [A2N],0.066 ± 0.27
14,KGVLCADHGEKLQLFCQEDGKVICWLCERSQEHRGHHTFLVE [A2G],0.198 ± 0.045
15,KPVLCADHGEKLQLFCQEDGKVICWLCERSQEHRGHHTFLVE [A2P],-0.071 ± 0.063
16,KRVLCADHGEKLQLFCQEDGKVICWLCERSQEHRGHHTFLVE [A2R],0.067 ± 0.047
17,RAVLCADHGEKLQLFCQEDGKVICWLCERSQEHRGHHTFLVE [K1R],-0.296 ± 0.053
18,FAVLCADHGEKLQLFCQEDGKVICWLCERSQEHRGHHTFLVE [K1F],-0.36 ± 0.2
19,QAVLCADHGEKLQLFCQEDGKVICWLCERSQEHRGHHTFLVE [K1Q],-0.32 ± 0.23
20,CAVLCADHGEKLQLFCQEDGKVICWLCERSQEHRGHHTFLVE [K1C],-0.698 ± 0.2
21,GAVLCADHGEKLQLFCQEDGKVICWLCERSQEHRGHHTFLVE [K1G],-0.193 ± 0.043

row,Variant,abundance fitness
1,YAVLCADHGEKLQLFCQEDGKVICWLCERSQEHRGHHTFLVE [K1Y],-0.01 ± 0.17
2,NAVLCADHGEKLQLFCQEDGKVICWLCERSQEHRGHHTFLVE [K1N],-0.296 ± 0.22
3,MAVLCADHGEKLQLFCQEDGKVICWLCERSQEHRGHHTFLVE [K1M],-0.156 ± 0.082
4,SAVLCADHGEKLQLFCQEDGKVICWLCERSQEHRGHHTFLVE [K1S],-0.142 ± 0.11
5,AAVLCADHGEKLQLFCQEDGKVICWLCERSQEHRGHHTFLVE [K1A],-0.273 ± 0.17
6,DAVLCADHGEKLQLFCQEDGKVICWLCERSQEHRGHHTFLVE [K1D],0.292 ± 0.18
7,VAVLCADHGEKLQLFCQEDGKVICWLCERSQEHRGHHTFLVE [K1V],-0.191 ± 0.083
8,EAVLCADHGEKLQLFCQEDGKVICWLCERSQEHRGHHTFLVE [K1E],0 ± 0.055
9,TAVLCADHGEKLQLFCQEDGKVICWLCERSQEHRGHHTFLVE [K1T],-0.255 ± 0.42
10,LAVLCADHGEKLQLFCQEDGKVICWLCERSQEHRGHHTFLVE [K1L],-0.439 ± 0.086
11,WAVLCADHGEKLQLFCQEDGKVICWLCERSQEHRGHHTFLVE [K1W],-0.722 ± 0.14
12,KALLCADHGEKLQLFCQEDGKVICWLCERSQEHRGHHTFLVE [V3L],-0.437 ± 0.16
13,KAHLCADHGEKLQLFCQEDGKVICWLCERSQEHRGHHTFLVE [V3H],-0.349 ± 0.17
14,KAKLCADHGEKLQLFCQEDGKVICWLCERSQEHRGHHTFLVE [V3K],0.046 ± 0.058
15,KAALCADHGEKLQLFCQEDGKVICWLCERSQEHRGHHTFLVE [V3A],-0.007 ± 0.054
16,KAMLCADHGEKLQLFCQEDGKVICWLCERSQEHRGHHTFLVE [V3M],0.141 ± 0.069
17,KAILCADHGEKLQLFCQEDGKVICWLCERSQEHRGHHTFLVE [V3I],-0.135 ± 0.1
18,KAGLCADHGEKLQLFCQEDGKVICWLCERSQEHRGHHTFLVE [V3G],0.127 ± 0.041
19,KAPLCADHGEKLQLFCQEDGKVICWLCERSQEHRGHHTFLVE [V3P],-0.485 ± 0.18
20,KACLCADHGEKLQLFCQEDGKVICWLCERSQEHRGHHTFLVE [V3C],0.098 ± 0.13
21,KAELCADHGEKLQLFCQEDGKVICWLCERSQEHRGHHTFLVE [V3E],-0.067 ± 0.09
